According to US11278600B2, “Human alpha-galactosidase variants” (Codexis, Inc., priority 2014, dated 2022):

How the values were obtained:
Assay type in all cases: biochemical
[1] = HTP-analysis of yeast culture supernatants, no challenge (MUGal hydrolysis); details: activity of the variant/activity of Rd4BB (SEQ ID NO: 15)
How it was run: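 GLA variants expressed in yeast INVSc1, secreted into SD-Ura broth over 66-84 h at 30° C; clarified supernatants tested without challenge. Supernatant mixed with McIlvaine buffer pH 4.8 and 2 mM MUGal (citrate/KCl, pH 4.6), 37° C for 30-180 min, carbonate-quenched, fluorescence Ex 355/Em 448 nm.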

[2] = HTP-analysis of supernatants pretreated with base (MUGal hydrolysis); details: activity of the variant/activity of Rd4BB (SEQ ID NO: 15); challenge at pH 9.65
How it was run: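 Fluorescence of released 4-MU (Ex 355 nm, Em 448 nm) after carbonate quench reports MUGal hydrolysis by GLA variants secreted from INVSc1 yeast. Before the acidic (pH 4.3-4.8) 30-180 min reaction at 37° C, supernatants had been pre-incubated at pH 7.0-9.7 for 1-18 h at 37° C.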

[3] = HTP-analysis of supernatants pretreated with acid (MUGal hydrolysis); details: activity of the variant/activity of Rd4BB (SEQ ID NO: 15); challenge at pH 3.7
How it was run: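 MUGal hydrolysis was tracked by fluorescence (Ex 355 nm, Em 448 nm) after a 30-180 min reaction at 37° C. in pH 4.8 McIlvaine/citrate buffer, stopped with 1 M sodium carbonate. Beforehand, yeast (INVSc1) culture supernatants carrying GLA variants were held 1-3 h at 37° C. in acidic McIlvaine buffer, pH 3.3-4.3.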

| Molecule | Relative Activity of GLA Variants After No Challenge (NC) [1] | Relative Activity of GLA Variants After Challenge at pH 9.65 [2] | Relative Activity of GLA Variants After Challenge at pH 3.7 [3] |
| --- | --- | --- | --- |
| 508 (protein, Synthetic Polypeptide sequence of Variant No. 508 of mature Human GLA) LDNGLARTPTMGWLHWERFMCNLDCQEEPDSCISEKLFMEMAERMVSEGWKDAGYEYLCIDDCWMAPQRDSEGRLQADPQRFPHGIRQLANYVHSKGLKLGIYADVGNKTCAGFPGSFGYYDIDAQTFADWGVDLLKFDGCYCDSLENLADGYKHMSLALNRTGRSIVYSCEWPLYMWPFQKPNYTEIRQYCNHWRNFADIDDSWKSIKSILDWTSFNQERIVDVAGPGGWNDPDMLVIGNFGLSWNQQVTQMALWAIMAAPLFMSNDLRHISPQAKALLQDKDVIAINQDPLGKQGYQLRQGDNFEVWERPLSGLAWAVAMINRQEIGGPRSYTIAVASLGKGVACNPACFITQLLPVKRKLGFYEWTSRLRSHINPTGTVLAQLENTMQMSLKDLL | − (<0.5 relative activity over Rd4BB (SEQ ID NO: 15)) | − (<0.5 relative activity over Rd4BB (SEQ ID NO: 15)) | − (<0.5 relative activity over Rd4BB (SEQ ID NO: 15)) |
| 509 (protein, Synthetic Polypeptide sequence of Variant No. 509 of mature Human GLA) LDNGLARTPTMGWLHWERFMCNLDCQEEPDSCISEKLFMEMAERMVSEGWKDAGYEYLCIDDCWMAPQRDSEGRLQADPQRFPHGIRQLANYVHSKGLKLGIYADVGNKTCAGFPGSFGYYDIDAQTFADWGVDLLKFDGCYCDSLENLADGYKHMSLALNRTGRSIVYSCEWPLYMWPFQKPNYTEIRQYCNHWRNFADIDDSWKSIKSILDWTSFNQERIVDVAGPGGWNDPDMLVIGNFGLSWNQQVTQMALWAIMAAPLFMSNDLRHISPQAKALLQDKDVIAINQDPLGKQGYQLRQGDNFEVWERPLSGLAWAVAMINRQEIGGPRSYTIAVASLGKGVACNPACFITQLLPVKRKLGFYEWTSRLRSHINPTGTVLLTLENTMQMSLKDLL | + (0.5 to 1.5 relative activity over Rd4BB (SEQ ID NO: 15)) | + (0.5 to 1.5 relative activity over Rd4BB (SEQ ID NO: 15)) | + (0.5 to 1.5 relative activity over Rd4BB (SEQ ID NO: 15)) |
| 510 (protein, Synthetic Polypeptide sequence of Variant No. 510 of mature Human GLA) LDNGLARTPTMGWLHWERFMCNLDCQEEPDSCISEKLFMEMAERMVSEGWKDAGYEYLCIDDCWMAPQRDSEGRLQADPQRFPHGIRQLANYVHSKGLKLGIYADVGNKTCAGFPGSFGYYDIDAQTFADWGVDLLKFDGCYCDSLENLADGYKHMSLALNRTGRSIVYSCEWPLYMWPFQKPNYTEIRQYCNHWRNFGDIDDSWKSIKSILDWTSFNQERIVDVAGPGGWNDPDMLVIGNFGLSWNQQVTQMALWAIMAAPLFMSNDLRHISPQAKALLQDKDVIAINQDPLGKQGYQLRQGDNFEVWERPLSGLAWAVAMINRQEIGGPRSYTIAVASLGKGVACNPACFITQLLPVKRKLGFYEWTSRLRSHINPTGTVLLQLENTMQRSLKDLL | + (0.5 to 1.5 relative activity over Rd4BB (SEQ ID NO: 15)) | + (0.5 to 1.5 relative activity over Rd4BB (SEQ ID NO: 15)) | − (<0.5 relative activity over Rd4BB (SEQ ID NO: 15)) |
| 373 (protein, Synthetic Polypeptide sequence of Variant No. 373 of mature Human GLA) LDNGLARTPTMGWLHWERFMCNLDCQEEPDSCISEKLFMERAERMVSEGWKDAGYEYLCIDDCWMAPQRDSEGRLQADPQRFPHGIRQLANYVHSKGLKLGIYADVGNKTCAGFPGSFGYYDIDAQTFADWGVDLLKFDGCYCDSLENLADGYKHMSLALNRTGRSIVYSCEWPLYMWPFQKPNYTEIRQYCNHWRNFADIDDSWKSIKSILDWTSRNQERIVDVAGPGGWNDPDMLVIGNFGLSWDQQVTQMALWAIMAAPLFMSNDLRHISPQAKALLQDKDVIAINQDPLGKQGYQLRKGDNFEVWERPLSGDAWAVAIINRQEIGGPRSYTIPVASLGKGVACNPACFITQLLPVKRQLGFYNWTSRLKSHINPTGTVLLQLENTMQMSLKDLL | − (<0.5 relative activity over Rd4BB (SEQ ID NO: 15)) | − (<0.5 relative activity over Rd4BB (SEQ ID NO: 15)) | − (<0.5 relative activity over Rd4BB (SEQ ID NO: 15)) |
| 375 (protein, Synthetic Polypeptide sequence of Variant No. 375 of mature Human GLA) LDNGLARTPTMGWLHWERFMCNLDCQEEPDSCISEKLFMEMAERMVIEGWKDAGYEYLCIDDCWMAPQRDSEGRLQADPQRFPHGIRQLANYVHSKGLKLGIYADVGNKTCAGFPGSFGYYDIDAQTFADWGVDLLKFDGCYCDSLENLADGYKHMSLALNRTGRSIVYSCEWPLYMWPFQKPNYTEIRQYCNHWRNFADIDDSWKSIKSILDWTSRNQERIVDVAGPGGWNDPDMLVIGNFGLSWDQQVTQMALWAIMAAPLFMSNDLRHISPQAKALLQDKDVIAINQDPLGKQGYQLRKGDNFEVWERPLSGDAWAVAIINRQEIGGPRSYTIPVASLGKGVACNPACFITQLLPVKRQLGFYNWTSRLKSHINPTGTVLLQLENTMQMSLKDLL | + (0.5 to 1.5 relative activity over Rd4BB (SEQ ID NO: 15)) | + (0.5 to 1.5 relative activity over Rd4BB (SEQ ID NO: 15)) | + (0.5 to 1.5 relative activity over Rd4BB (SEQ ID NO: 15)) |
| 374 (protein, Synthetic Polypeptide sequence of Variant No. 374 of mature Human GLA) LDNGLARTPTMGWLHWERFMCNLDCQEEPDSCISEKLFMEMAEMMVSEGWKDAGYEYLCIDDCWMAPQRDSEGRLQADPQRFPHGIRQLANYVHSKGLKLGIYADVGNKTCAGFPGSFGYYDIDAQTFADWGVDLLKFDGCYCDSLENLADGYKHMSLALNRTGRSIVYSCEWPLYMWPFQKPNYTEIRQYCNHWRNFADIDDSWKSIKSILDWTSRNQERIVDVAGPGGWNDPDMLVIGNFGLSWDQQVTQMALWAIMAAPLFMSNDLRHISPQAKALLQDKDVIAINQDPLGKQGYQLRKGDNFEVWERPLSGDAWAVAIINRQEIGGPRSYTIPVASLGKGVACNPACFITQLLPVKRQLGFYNWTSRLKSHINPTGTVLLQLENTMQMSLKDLL | + (0.5 to 1.5 relative activity over Rd4BB (SEQ ID NO: 15)) | + (0.5 to 1.5 relative activity over Rd4BB (SEQ ID NO: 15)) | + (0.5 to 1.5 relative activity over Rd4BB (SEQ ID NO: 15)) |
| 376 (protein, Synthetic Polypeptide sequence of Variant No. 376 of mature Human GLA) LDNGLARTPTMGWLHWERFMCNLDCQEEPDSCISEKLFMEPAERMVSEGWKDAGYEYLCIDDCWMAPQRDSEGRLQADPQRFPHGIRQLANYVHSKGLKLGIYADVGNKTCAGFPGSFGYYDIDAQTFADWGVDLLKFDGCYCDSLENLADGYKHMSLALNRTGRSIVYSCEWPLYMWPFQKPNYTEIRQYCNHWRNFADIDDSWKSIKSILDWTSRNQERIVDVAGPGGWNDPDMLVIGNFGLSWDQQVTQMALWAIMAAPLFMSNDLRHISPQAKALLQDKDVIAINQDPLGKQGYQLRKGDNFEVWERPLSGDAWAVAIINRQEIGGPRSYTIPVASLGKGVACNPACFITQLLPVKRQLGFYNWTSRLKSHINPTGTVLLQLENTMQMSLKDLL | − (<0.5 relative activity over Rd4BB (SEQ ID NO: 15)) | − (<0.5 relative activity over Rd4BB (SEQ ID NO: 15)) | − (<0.5 relative activity over Rd4BB (SEQ ID NO: 15)) |
| 377 (protein, Synthetic Polypeptide sequence of Variant No. 377 of mature Human GLA) LDNGLARTPTMGWLHWERFMCNLDCQEEPDSCISEKLFTEMAERMVSEGWKDAGYEYLCIDDCWMAPQRDSEGRLQADPQRFPHGIRQLANYVHSKGLKLGIYADVGNKTCAGFPGSFGYYDIDAQTFADWGVDLLKFDGCYCDSLENLADGYKHMSLALNRTGRSIVYSCEWPLYMWPFQKPNYTEIRQYCNHWRNFADIDDSWKSIKSILDWTSRNQERIVDVAGPGGWNDPDMLVIGNFGLSWDQQVTQMALWAIMAAPLFMSNDLRHISPQAKALLQDKDVIAINQDPLGKQGYQLRKGDNFEVWERPLSGDAWAVAIINRQEIGGPRSYTIPVASLGKGVACNPACFITQLLPVKRQLGFYNWTSRLKSHINPTGTVLLQLENTMQMSLKDLL | + (0.5 to 1.5 relative activity over Rd4BB (SEQ ID NO: 15)) | − (<0.5 relative activity over Rd4BB (SEQ ID NO: 15)) | ++ (>1.5 to 2.5 relative activity over Rd4BB (SEQ ID NO: 15)) |
